The source of these data is article PMC8017934.

Several values for one entry are separate records, joined by “and”; a condition that tells them apart may be missing. Equal values may be shown once.

For experiment [1], the target named is human 40S ribosomal subunit with the ybbR tag on RACK1, biotinylated or Cy5-labelled (human) (UniProt P63244).
Experiment [2] addresses human 40S ribosomal subunit with the ybbR tag on uS19, Cy3-labelled (human (endogenous in HEK293T)) (UniProt P62841).

In experiment [1], “Bat-Hp-CoV NSP1 with an N-terminal ybbR tag, Cy3-labelled (natural protein)” showed a Kd of less than 1 nM, a fraction of IRES–40S complexes bound at least once by NSP1 (≥∼5 s) of 89% and an off-rate (koff) of less than 0.002 s⁻¹.
On to “SARS-CoV-2 NSP1(KH164-165AA) with an N-terminal ybbR tag, Cy3-labelled (from UniProt P0DTD1 1-180) (natural protein)”, for which, in experiment [1], the Kd was greater than 350 nM, the fraction of IRES–40S complexes bound at least once by NSP1 (≥∼5 s) was 9% and the off-rate (koff) came to 0.14 s⁻¹.
Consider “SARS-CoV-2 NSP1 with an N-terminal ybbR tag, fluorescently labelled (from UniProt P0DTD1 1-180) (natural protein)”, for which, in experiment [2], the fraction of recruited 40S subunits with which NSP1 coassociated was 57% and 60%.

As usually defined, the Kd is a measure of binding affinity in units of concentration. Read a low Kd as higher affinity. In general, koff refers to the rate constant with which the complex falls apart. A low value points to slow dissociation.
